The record followed here is US20210261671A1 (HARPOON THERAPEUTICS, published 2021).

In test [1] the target is T1, anti-FLT3/anti-albumin/anti-CD3 multispecific protein containing humanized FLH4.
T1 construct: trispecific single-chain fusion with His6; purified from CHO conditioned medium
Nature of the test: BLI (Octet), biotinylated FLT3 on streptavidin tips. Here is the method:
(§1) The affinities of the purified multispecific proteins for human and cynomolgus FLT3 were measured with an Octet instrument with streptavidin tips were loaded with biotinylated human or cynomolgus FLT3 protein. The tips were then incubated with solutions containing 50, 16.7, 5.6, or 1.9 nM of the multispecific protein. Affinities (KD), listed in Table 7, were calculated by measuring the on rate and off rate of binding of anti-FLT3/anti-albumin/anti-CD3 multispecific proteins to the captured biotinylated FLT3 proteins.

The target of test [2] is T2, anti-FLT3/anti-albumin/anti-CD3 multispecific protein containing humanized FLH92a.
T2 construct: trispecific single-chain fusion with His6; purified from CHO conditioned medium
The test is described as above. Here is the method:
as §1

Test [3] concerns the target T3, anti-FLT3/anti-albumin/anti-CD3 multispecific protein containing humanized FLH78.
T3 construct: trispecific single-chain fusion with His6; purified from CHO conditioned medium
The test is described as above. Here is the method: as §1

The target in test [4] is T4, anti-FLT3/anti-albumin/anti-CD3 multispecific protein containing humanized FLH92b.
T4 construct: trispecific single-chain fusion with His6; purified from CHO conditioned medium
The test is described as above. The procedure: as §1

Test [5] concerns the target T5, anti-FLT3/anti-albumin/anti-CD3 multispecific protein containing humanized FLH34.
T5 construct: trispecific single-chain fusion with His6; purified from CHO conditioned medium
The test is described as above. The procedure: as §1

Test [6] has as its target T6, anti-FLT3/anti-albumin/anti-CD3 multispecific protein containing humanized FLH107.
T6 construct: trispecific single-chain fusion with His6; purified from CHO conditioned medium
The description is as above. Here is the method:
as §1

The target of test [7] is T7, anti-FLT3/anti-albumin/anti-CD3 multispecific protein containing humanized FLH19C.
T7 construct: trispecific single-chain fusion with His6; purified from CHO conditioned medium
The test is described as above. Here is the method:
as §1

The target in test [8] is T8, anti-FLT3/anti-albumin/anti-CD3 multispecific protein containing humanized FLH141.
T8 construct: trispecific single-chain fusion with His6; purified from CHO conditioned medium
The test is described as above. The procedure: as §1

Test [9] deals with T9, anti-FLT3/anti-albumin/anti-CD3 multispecific protein containing FLL8.
T9 construct: trispecific single-chain fusion with His6; Expi293 conditioned medium
Nature of the test: BLI (Octet), conditioned medium, single 50 nM concentration (relative affinity). Here is the method:
(§2) Additional affinity determinations were performed using conditioned media from Example 2 with known concentrations of anti-FLT3/anti-CD3 multispecific proteins. […] An Octet instrument with streptavidin tips were loaded with biotinylated human or cynomolgus FLT3 protein, and KD values for binding FLT3 were calculated by measuring the on rate and off rate of binding of anti-FLT3/anti-CD3 multispecific proteins to the biotinylated FLT3 proteins.
A general note: Biolayer interferometry detects binding as a change in optical thickness at a sensor tip.

The target of test [10] is T10, anti-FLT3/anti-albumin/anti-CD3 multispecific protein containing FLL71.
T10 construct: trispecific single-chain fusion with His6; Expi293 conditioned medium
Described as above. The procedure: as §2

Test [11] addresses T11, anti-FLT3/anti-albumin/anti-CD3 multispecific protein containing FLL41.
T11 construct: trispecific single-chain fusion with His6; Expi293 conditioned medium
The test is described as above. Here is the method: as §2

The target in test [12] is T12, anti-FLT3/anti-albumin/anti-CD3 multispecific protein containing FLL153.
T12 construct: trispecific single-chain fusion with His6; Expi293 conditioned medium
The description is as above. The procedure: as §2

Test [13] deals with T13, anti-FLT3/anti-albumin/anti-CD3 multispecific protein containing FLL134.
T13 construct: trispecific single-chain fusion with His6; Expi293 conditioned medium
The test is described as above. The procedure:
as §2

The target of test [14] is T14, anti-FLT3/anti-albumin/anti-CD3 multispecific protein containing FLL92.
T14 construct: trispecific single-chain fusion with His6; Expi293 conditioned medium
The description is as above. Here is the method:
as §2

Test [15] concerns the target T7, anti-FLT3/anti-albumin/anti-CD3 …. Briefly: biolayer interferometry (data not shown).

T7 sequence (chain, as listed by the source): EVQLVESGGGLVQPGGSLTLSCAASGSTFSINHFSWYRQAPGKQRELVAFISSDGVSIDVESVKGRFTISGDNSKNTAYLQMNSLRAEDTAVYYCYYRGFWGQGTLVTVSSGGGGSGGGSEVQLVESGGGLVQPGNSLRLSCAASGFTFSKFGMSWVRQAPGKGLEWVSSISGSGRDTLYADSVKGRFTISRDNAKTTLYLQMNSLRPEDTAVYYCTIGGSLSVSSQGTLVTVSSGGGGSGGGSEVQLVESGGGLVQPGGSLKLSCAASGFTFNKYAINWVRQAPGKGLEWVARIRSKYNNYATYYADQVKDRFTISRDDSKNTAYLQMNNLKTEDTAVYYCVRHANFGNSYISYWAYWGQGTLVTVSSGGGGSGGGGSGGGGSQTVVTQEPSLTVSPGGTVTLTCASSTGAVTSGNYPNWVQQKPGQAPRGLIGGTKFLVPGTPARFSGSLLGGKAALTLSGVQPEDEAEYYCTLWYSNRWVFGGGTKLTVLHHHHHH
T4 sequence (chain, as listed by the source): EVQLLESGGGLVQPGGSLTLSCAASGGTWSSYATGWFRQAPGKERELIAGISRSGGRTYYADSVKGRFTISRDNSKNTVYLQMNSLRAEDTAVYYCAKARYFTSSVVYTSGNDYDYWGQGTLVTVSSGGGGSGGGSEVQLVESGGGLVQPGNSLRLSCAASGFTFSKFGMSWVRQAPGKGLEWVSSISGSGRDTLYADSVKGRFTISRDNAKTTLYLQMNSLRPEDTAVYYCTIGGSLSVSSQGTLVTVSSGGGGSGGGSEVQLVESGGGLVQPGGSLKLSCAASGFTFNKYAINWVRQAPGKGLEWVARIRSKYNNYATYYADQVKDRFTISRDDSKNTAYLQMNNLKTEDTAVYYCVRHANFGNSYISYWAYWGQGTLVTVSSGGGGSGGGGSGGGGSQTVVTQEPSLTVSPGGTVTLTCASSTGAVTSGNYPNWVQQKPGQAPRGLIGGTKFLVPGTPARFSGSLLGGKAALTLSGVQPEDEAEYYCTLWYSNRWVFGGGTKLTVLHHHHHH
T2 sequence (chain, as listed by the source): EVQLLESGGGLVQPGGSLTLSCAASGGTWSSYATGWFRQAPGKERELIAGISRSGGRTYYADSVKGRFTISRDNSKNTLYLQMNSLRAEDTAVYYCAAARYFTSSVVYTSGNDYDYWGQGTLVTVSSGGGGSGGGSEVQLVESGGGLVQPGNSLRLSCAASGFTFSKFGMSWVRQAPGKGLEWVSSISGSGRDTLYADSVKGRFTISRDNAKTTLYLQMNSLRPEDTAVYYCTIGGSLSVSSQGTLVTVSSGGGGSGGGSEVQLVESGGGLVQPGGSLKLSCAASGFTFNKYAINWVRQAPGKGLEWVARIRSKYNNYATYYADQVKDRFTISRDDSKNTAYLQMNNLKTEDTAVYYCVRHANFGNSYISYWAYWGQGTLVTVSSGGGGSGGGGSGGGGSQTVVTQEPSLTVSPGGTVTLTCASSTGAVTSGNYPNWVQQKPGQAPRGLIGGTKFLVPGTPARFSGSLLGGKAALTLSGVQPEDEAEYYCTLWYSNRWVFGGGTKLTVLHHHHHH
T11 sequence (chain, as listed by the source): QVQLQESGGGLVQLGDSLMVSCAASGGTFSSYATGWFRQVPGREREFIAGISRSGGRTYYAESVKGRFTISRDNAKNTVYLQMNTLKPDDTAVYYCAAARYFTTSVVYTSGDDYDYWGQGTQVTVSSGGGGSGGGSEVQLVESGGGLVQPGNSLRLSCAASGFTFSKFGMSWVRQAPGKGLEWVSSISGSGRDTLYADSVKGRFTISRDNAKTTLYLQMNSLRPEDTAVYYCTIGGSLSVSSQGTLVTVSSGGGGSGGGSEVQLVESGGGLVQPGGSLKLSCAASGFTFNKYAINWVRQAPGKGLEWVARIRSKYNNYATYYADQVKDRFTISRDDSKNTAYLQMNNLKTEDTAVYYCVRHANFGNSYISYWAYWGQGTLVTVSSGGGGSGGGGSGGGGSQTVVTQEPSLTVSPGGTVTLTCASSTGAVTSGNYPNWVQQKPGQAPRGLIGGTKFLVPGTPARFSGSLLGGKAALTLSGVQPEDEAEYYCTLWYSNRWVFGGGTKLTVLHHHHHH
T5 sequence (chain, as listed by the source): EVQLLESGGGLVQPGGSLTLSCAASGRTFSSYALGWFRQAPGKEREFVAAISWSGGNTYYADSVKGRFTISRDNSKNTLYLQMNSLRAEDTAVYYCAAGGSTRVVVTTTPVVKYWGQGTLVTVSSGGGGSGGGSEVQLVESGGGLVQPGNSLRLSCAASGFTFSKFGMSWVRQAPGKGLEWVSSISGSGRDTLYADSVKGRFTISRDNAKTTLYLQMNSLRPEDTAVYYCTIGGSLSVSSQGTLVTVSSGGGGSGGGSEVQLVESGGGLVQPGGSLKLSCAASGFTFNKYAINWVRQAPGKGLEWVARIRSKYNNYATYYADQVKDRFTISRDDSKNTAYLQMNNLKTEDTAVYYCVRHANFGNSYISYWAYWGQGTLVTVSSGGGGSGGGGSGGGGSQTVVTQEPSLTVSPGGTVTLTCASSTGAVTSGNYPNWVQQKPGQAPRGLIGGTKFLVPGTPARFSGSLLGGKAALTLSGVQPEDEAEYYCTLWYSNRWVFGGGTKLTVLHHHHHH
T6 sequence (chain, as listed by the source): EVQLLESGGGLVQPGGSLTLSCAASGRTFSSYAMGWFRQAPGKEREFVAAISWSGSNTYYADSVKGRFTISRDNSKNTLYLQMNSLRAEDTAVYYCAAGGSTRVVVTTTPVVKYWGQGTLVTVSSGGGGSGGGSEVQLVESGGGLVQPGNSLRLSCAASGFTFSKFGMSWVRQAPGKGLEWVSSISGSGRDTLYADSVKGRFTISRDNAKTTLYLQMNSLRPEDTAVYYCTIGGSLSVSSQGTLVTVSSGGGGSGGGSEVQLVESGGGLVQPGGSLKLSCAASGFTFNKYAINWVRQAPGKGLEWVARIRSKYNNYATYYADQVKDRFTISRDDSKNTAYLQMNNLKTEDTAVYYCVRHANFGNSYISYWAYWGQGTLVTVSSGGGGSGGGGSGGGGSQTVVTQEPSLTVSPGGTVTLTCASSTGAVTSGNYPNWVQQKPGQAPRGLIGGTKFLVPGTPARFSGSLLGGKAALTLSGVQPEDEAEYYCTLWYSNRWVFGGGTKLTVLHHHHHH
T1 sequence (chain, as listed by the source): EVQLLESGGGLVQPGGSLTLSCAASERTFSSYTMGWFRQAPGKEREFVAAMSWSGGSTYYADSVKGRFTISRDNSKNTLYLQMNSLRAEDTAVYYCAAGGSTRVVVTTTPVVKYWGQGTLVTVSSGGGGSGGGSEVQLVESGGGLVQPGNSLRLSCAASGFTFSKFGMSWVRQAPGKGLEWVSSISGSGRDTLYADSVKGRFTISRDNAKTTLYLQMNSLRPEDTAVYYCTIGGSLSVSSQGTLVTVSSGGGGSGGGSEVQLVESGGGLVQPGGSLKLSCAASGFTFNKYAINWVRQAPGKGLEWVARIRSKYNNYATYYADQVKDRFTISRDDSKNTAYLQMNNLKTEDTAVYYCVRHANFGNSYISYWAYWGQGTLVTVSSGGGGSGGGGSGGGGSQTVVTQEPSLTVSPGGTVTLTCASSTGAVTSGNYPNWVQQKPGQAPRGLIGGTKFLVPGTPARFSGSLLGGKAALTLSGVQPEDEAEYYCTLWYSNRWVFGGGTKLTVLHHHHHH
T8 sequence (chain, as listed by the source): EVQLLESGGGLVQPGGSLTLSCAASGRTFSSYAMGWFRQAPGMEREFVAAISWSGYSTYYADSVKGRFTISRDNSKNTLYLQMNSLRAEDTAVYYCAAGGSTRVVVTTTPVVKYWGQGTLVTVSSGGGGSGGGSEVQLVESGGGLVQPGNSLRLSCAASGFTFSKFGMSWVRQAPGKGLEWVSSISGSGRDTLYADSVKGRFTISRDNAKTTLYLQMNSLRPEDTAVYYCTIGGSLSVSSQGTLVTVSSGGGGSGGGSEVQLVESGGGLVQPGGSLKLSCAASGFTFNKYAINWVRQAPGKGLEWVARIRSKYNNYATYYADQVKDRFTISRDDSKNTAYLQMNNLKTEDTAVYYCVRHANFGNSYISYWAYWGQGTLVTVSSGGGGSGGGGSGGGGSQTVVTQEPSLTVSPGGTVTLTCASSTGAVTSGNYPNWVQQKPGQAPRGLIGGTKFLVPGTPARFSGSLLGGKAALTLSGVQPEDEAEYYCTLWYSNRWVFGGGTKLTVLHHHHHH
T3 sequence (chain, as listed by the source): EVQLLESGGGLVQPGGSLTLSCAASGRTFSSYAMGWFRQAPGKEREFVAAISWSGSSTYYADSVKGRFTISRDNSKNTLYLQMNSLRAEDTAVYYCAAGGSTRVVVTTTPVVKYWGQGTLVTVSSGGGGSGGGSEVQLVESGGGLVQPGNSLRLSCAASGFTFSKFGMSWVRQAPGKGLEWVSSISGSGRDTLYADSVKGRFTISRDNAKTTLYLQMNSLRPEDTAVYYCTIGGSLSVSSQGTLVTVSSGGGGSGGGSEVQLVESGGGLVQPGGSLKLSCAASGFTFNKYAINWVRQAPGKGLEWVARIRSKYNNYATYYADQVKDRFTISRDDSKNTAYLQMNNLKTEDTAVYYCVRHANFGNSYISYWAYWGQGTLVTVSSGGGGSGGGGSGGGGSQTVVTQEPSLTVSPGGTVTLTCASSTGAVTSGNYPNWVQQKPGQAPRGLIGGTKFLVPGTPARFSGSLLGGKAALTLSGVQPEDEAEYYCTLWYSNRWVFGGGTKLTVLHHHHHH

B1: biotinylated cynomolgus FLT3 protein (receptor, cynomolgus monkey)
chain: NQDLPVIKCVLINHKNNDSSVGKSSSYPMVSESPEDLGCALRPQSAGTVYEAATVEVDVSASITLQVLVDTPGNISCLWVFKHSSLNCQPHFDVQNRGVVSMVILKMTETQAGEYLLFIQSEATNYTIVFTVSIRNTLLFTLRRPYFRKMENQDALVCISESVPEPIVEWVLCDSQGESCKEESPAVVKKEEKVLHELFGTDIRCCARNELGRECTRLFTIDLNQTPQTTLPQLFLKVGEPLWIRCKAVHVNHGFGLTWELENKALEEGSYFEMSTYSTNRTMIRILFAFVSSVARNDTGYYTCSSSKHPSQSALVTIVEKGFINATNSSEDYEIDQYEEFCFSVRFKAYPQIRCTWTFSRKAFPCEQKALDDGYSVSKFCNHKHQPGEYIFHAENGDAQFTKMFTLNIRRKPQVLAEASASQASCSSDGYPLPSWTWKKCSDKSPNCTEDIPEGVWNRKANRKVFGQWVSSSTLNMSEAMKGFLVKCCAYNSLGTSCETILLNSPGPFPFIQDS
modifications: biotinylated (sites not given)
notes: loaded on streptavidin Octet tips; also called Cynomolgus Monkey FLT3
With B1, the Kd (commonly a measure of binding affinity in units of concentration) in [1] turned out to be 214 nM; in test [2], 11.8 nM; in test [3] it was 161 nM; in test [4], 7.8 nM; in test [5], 19 nM; in test [6] it was 10 nM. For the same molecule, the Kd in [7] is 2.7 nM; in [8] it was 35 nM; in test [9], 18 nM; in test [10], 26 nM; in test [11], 34 nM; in [12], 102 nM. The Kd is 24 nM in [13] and 2 nM in test [14].

B2: cynomolgus serum albumin (other, cynomolgus monkey, UniProt A2V9Z4 25-608, looked up)
chain: DTHKSEVAHRFKDLGEEHFKGLVLVAFSQYLQQCPFEEHVKLVNEVTEFAKTCVADESAENCDKSLHTLFGDKLCTVATLRETYGEMADCCAKQEPERNECFLQHKDDNPNLPPLVRPEVDVMCTAFHDNEATFLKKYLYEVARRHPYFYAPELLFFAARYKAAFAECCQAADKAACLLPKLDELRDEGKASSAKQRLKCASLQKFGDRAFKAWAVARLSQKFPKAEFAEVSKLVTDLTKVHTECCHGDLLECADDRADLAKYMCENQDSISSKLKECCDKPLLEKSHCLAEVENDEMPADLPSLAADYVESKDVCKNYAEAKDVFLGMFLYEYARRHPDYSVMLLLRLAKAYEATLEKCCAAADPHECYAKVFDEFQPLVEEPQNLVKQNCELFEQLGEYKFQNALLVRYTKKVPQVSTPTLVEVSRNLGKVGAKCCKLPEAKRMPCAEDYLSVVLNRLCVLHEKTPVSEKVTKCCTESLVNRRPCFSALELDEAYVPKAFNAETFTFHADMCTLSEKEKQVKKQTALVELVKHKPKATKEQLKGVMDNFAAFVEKCCKADDKEACFAEEGPKFVAASQAALA
B2 registered a Kd in [15] of 4.4 nM.
